Reference: patent US20130263324, “METHODS FOR PRODUCING A COMPLEX TRANSGENIC TRAIT LOCUS” (E.I. du Pont de Nemours and Company, published 2013)

Legend:
[1] = test system: MHP77-3 meganuclease (engineered I-CreI); experiment: cell_activity; details: maize embryos
[2] = target: T1, MHP14+ meganuclease (engineered I-CreI); experiment: cell_activity; maize embryos; details: tags: SV40 NLS
T1 chain: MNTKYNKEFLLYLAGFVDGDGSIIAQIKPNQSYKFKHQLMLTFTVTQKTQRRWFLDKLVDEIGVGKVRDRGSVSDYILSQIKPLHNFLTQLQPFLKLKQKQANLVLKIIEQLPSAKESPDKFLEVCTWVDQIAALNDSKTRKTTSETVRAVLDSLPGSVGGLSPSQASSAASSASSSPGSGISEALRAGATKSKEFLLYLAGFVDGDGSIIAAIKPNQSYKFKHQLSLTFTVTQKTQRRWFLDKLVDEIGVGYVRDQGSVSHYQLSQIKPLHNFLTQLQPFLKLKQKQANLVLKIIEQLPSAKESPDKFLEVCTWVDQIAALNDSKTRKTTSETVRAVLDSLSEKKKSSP
Description: (§1) Trait gene cassettes can be introduced at other target sites of the complex trait locus through homologous recombination mediated by engineered meganucleases. Engineered meganucleases were designed to direct double strand breaks a two other MHP target sites, MHP55 (SEQ ID NO: 72) and MHP77 (SEQ ID NO: 74) within the complex trait locus. Target site modification was determined using qPCR. The probe sequence for qPCR screening of the MHP55 target site was […] (SEQ ID NO: 115), the MHPTS55_Forward_MGBprimer sequence was […] (SEQ ID NO: 116), and MHP55_reverse_MGB primer was […] (SEQ ID NO: 117). The probe sequence for qPCR of MHP77 target site was […] (SEQ ID NO: 118), the MHPTS77_Forward_MGB primer sequence was […] (SEQ ID NO: 119), and MHP77_reverse_MGB primer was […] (SEQ ID NO: 120). The trait gene cassettes encoding MHP14, MHP55 and MHP77 were introduced into maize somatic embryos via transformation techniques using bombardment and following bombardment, embryos were incubated on 560P (maintenance medium) for 48 hours […].

[3] = target: T2, MHP55-2 meganuclease (engineered I-CreI); experiment: cell_activity; maize embryos; details: tags: SV40 NLS
T2 chain: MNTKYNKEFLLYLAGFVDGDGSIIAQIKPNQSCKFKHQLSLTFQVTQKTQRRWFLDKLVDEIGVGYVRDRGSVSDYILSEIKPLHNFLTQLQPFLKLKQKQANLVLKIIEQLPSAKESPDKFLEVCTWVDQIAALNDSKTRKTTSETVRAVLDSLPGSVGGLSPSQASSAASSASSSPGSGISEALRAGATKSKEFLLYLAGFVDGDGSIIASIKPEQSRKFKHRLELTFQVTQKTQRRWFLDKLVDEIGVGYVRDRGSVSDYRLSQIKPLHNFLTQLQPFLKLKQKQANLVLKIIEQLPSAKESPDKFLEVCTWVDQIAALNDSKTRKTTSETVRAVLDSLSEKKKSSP
Description: as §1

[4] = target: T3, MHP77 meganuclease (engineered I-CreI); experiment: cell_activity; maize embryos; details: tags: SV40 NLS
T3 chain: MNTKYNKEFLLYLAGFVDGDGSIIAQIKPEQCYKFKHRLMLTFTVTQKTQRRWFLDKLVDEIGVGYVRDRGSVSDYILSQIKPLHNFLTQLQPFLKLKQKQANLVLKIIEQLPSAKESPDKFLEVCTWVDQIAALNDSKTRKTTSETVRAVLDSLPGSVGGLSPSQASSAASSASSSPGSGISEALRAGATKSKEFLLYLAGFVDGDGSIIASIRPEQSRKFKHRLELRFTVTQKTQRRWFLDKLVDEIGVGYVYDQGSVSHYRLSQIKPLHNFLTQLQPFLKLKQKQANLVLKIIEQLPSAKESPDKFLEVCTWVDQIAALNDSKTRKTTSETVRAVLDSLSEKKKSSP
Description: as §1

## GGGCGGTATGTATGTCATACTA (double strand) [MHP77 target]
[1]
  activity (% target site mutation): 11

B1: MHP14 target (dsDNA)
DNA 1: CAAACAGATTCACGTCAGATTT
DNA 2: AAATCTGACGTGAATCTGTTTG
[2]
  activity: 40 % target site mutation

B2: MHP55 target (dsDNA)
DNA 1: CCAACCGTCGTGAGACCTGCCC
DNA 2: GGGCAGGTCTCACGACGGTTGG
[3]
  activity: 5 % target site mutation

B3: MHP77 target (dsDNA)
DNA 1: GGGCGGTATGTATGTCATACTA
DNA 2: TAGTATGACATACATACCGCCC
[4]
  activity: 1 % target site mutation
